Test results from a protein production outcome set (Wang et al. 2014).

Assay: label from the status in PepcDB records

Question: With “MDEKNIVALLGQPNVGKTTLFNHLTGMKQRIGNWPGVTVEKKEGFFKKNNENYVVVDLPGIYSLMSDSIDQKIARDYIVENSKITVIDVIDTPNINRNLYLTIQLLELGISPILCLNLIDEAEKFGIYVNDQKLSEKLGVPVIRTSGRHKIGIDNLKNALYEFKPTEPVKITYSSLLEETIEKIIDKLENSQYKLDEIYARLPKRWIAISLLEKDPDVVNKFSKYPEFIKFVKDLKIEIENEIKHDVESYVVEQRYKKCDEILAGVMVNSELYEDIDTIVIHPVYGSLIFGVVLYTMYNFVFGLGDIFSGFIGSFFEILGNYLMNILPESFSGVIIDGLLAGVGGVLEFFPIVFLIMFSLSTLEDTGYLSRVTALTHSVMSTMGLSGKSFIPMITGFGCSVPALMGTRFISSHKERLITLLVTPLVPCSARFVIIGFFASFFFIEHAALFTLSILAITFAMLFIVSYVLSKFIKGEAEEYIFELPPYRIPDWDNIIKMTWAKSKEFLKKAGTVIAAGSILFYGFVNYPSPDANYAAVVGKIIEHVTQYMGLDWRAAISLIFGIFAKELVVSSFSILYPENISTAFSPLKAFVLTLVSVLYIPCLATLATLYLETRSLKWTAFGIGYNLVLATLVGIITYNIGTMLGF” as the sequence, how does the protein production read?
Answer: failed

Question: For “MQEVHDYGIKFWSNNEFKIEKGLVKVCHGKNPSLLEIVQSVRDKGYRGPLLVRFPHLVQKQIKSLFDAFSSAIKEYQYSGAFKAVFPLKVNQMPSFVFPLVQGAKGLNYGLEAGSKSELIIAMSYTNPKAPITVNGFKDKEMIELGFIAKSMQHEITLTIEGLNELKTIIAVAKQNEFLACPKIGIRIRLHSTGTGVWAKSGGINSKFGLSSTEVLEAMRLLEENDLLEHFHMIHFHIGSQISDISPLKKALREAGNLYAELRKMGAKNLNSVNIGGGLAVEYTQHKHHQDKNYTLEEFSADVVFLLREIVKNKQEIEPDIFIESGRYISANHAVLVAPVLELFSHEYNEKSLKIKENNNPPLIDEMLDLLANINEKNAIEYLHDSFDHTESLFTLFDLGYIDLIDRSNTEVLAHLIVKKAVQLLYVKDHNDILRIQEQVQERYLLNCSFFQSLPDYWGLRQNFPVMPLNKLDEKPTRSASLWDITCDSDGEIAFDSTKPLFLHDIDIDEEEYFLAFFLVGAYQEVLGMKHNLFTHPTEFSVVFDEKGDYEVEDICEAQTILDVLDDLDYDTKEIERLLKQKIEDNNQLDMEEKKEIMGRLYVMLSENGYLRTIS”, which protein production is on record?
Answer: failed

Question: For “MHFHLRNLRLHMETNGTPQSPAGDWRSYERMLLPPIQDLHKLGVYEEHGGYDRLRRVLEDDAFEPSDVTDEVKASGLTGRGGAGFPTGIKWTFMPEPDERPRFIGVNADESEPGTFKDRQVMEYNPHLMLEGILLAGYALHIDTAYVYIRGEYTDWIVHLKEQLENAYEAGYVGENIMGSDFTMDIVLHKGAGAYICGEETSLMESLEGKRGYPRYKPPFPAQSGIFGSPTTINNAETLAHVPLIVEQGGEAYSNIGAGDMPGPALYGMSGHVKNPGVYEFPTGMLLTDMIYDVCGGMARDKDLKAVVPGGSSVPPVPADQIDGISMNDESLGEVGSRTGTFCPLVLDEETDMVSFLRRVAHFYQDETCGQCTPCREGTSWLEKILARIDEGEGRMRDIDLLLELCDNMDGGRTICAFADGAVGPVRATVKRFREEFAAKCQASVHPVSTEVSAGAGSAVAATE”, which protein production is on record?
Answer: failed

Question: With “STITYYRTDLFKQAGLSMPERPTWTQLGEFAAKLHQPDKGVYGMCLRGKAGWGENIALLSTMANAFGARWFDEHWKPELNSPEWANAANFYVNTLKNYGPPGVSSNGFNETLALFNSGKCALWVDASVAGSFTTDKEQSKVVDSVGFAPAPVEVTDKGSSWLYAWSLAIPATSRHKDAAKAFITWATSKAYIQLVAEKDGITNVPPGTRTSTYSEA” as the sequence, how does the protein production read?
Answer: failed

Question: Which protein production does the source give for “MEFILEPWHWFVLGILLMLSELVITAFAALWFGIAAIMVSVLLWLFPMMGITTQVIMWIILSVLCTLLWFKFIKPLSIDKTKAGLSREATIGQIGMVIRVGLSHEQIVVRFALPVLGADEWNCRSLAPVEVGDRVCVVDIMGNDLVVQPHIPINNK” here?
Answer: failed

Question: With “MSVNPFQTMRARYFLIVFALLTVVARASNELIENTFHMQNSTFINILIFYILPITWIYFAYKKHRVAFSLFINRNETFNLVQVLYITIMLCVFSYGYLILYMYSFAWITPTFIMNALREPIMDSTGGYVYQVIMVVFIAPIIGEFVFRGFLLQRFAAKWGTSIAIIVVAILFALLHVDFLGAIVFSVVLSIVYIRTNSLLMPIAIHMLNNAFVIGASFLINKEEIMSFADFSNYTTFFPGLIIFITGLNLVLIFLFVNRKYWSKEMPAIYVEQEKSFSDVVGSK” as the sequence, how does the protein production read?
Answer: failed

Question: With “MKYLPLYPILARYPFLRIASRVFSFNIEDELRKFLDTVEAAKRIVDKAIDGRVEYDRFTDESEFFCLGCEENCYDCQKRGTLEGCDLCMGCFENCSLYYPREAVERFYTNAKLSLLTYIASRMIVSAMEDWVRMRYAVNEASYYSRLLREDVEESGKEPIVRLVAIDLGAKLKGWKMHVSTFVRVSARIKDDKWRLVNRKLRNGWVETTKAEVLRGLEELLRMKLFEKVPVSEAVSEAVRELSRKAKRESEKFAMDLGEVDLNCLPPCMREILSELQRGMNIPHTARFAITSFLLNIGMTVDEIIALFKSAPDFDDEKTRYQVEHIAGERGKGAEYTSPSCDTMRTYSNCVADCRVSHPLIYYKKCKSKSLEHHHHHH” as the sequence, how does the protein production read?
Answer: not failed

Question: Which protein production does the source give for “MKTRMKITIAFVAVMVLSFTGYNVYKTQKAIQLSDVAMANVEALADGEGTNAGYCYLEDTWSTKRGYKYFCDSKTDKNTIYPCPSSMESGWYDDNKQDRCTK” here?
Answer: failed

Question: With “MNFNWFLMLFLFNFSVLLGSDTTALGHYQRANEYYLSKRYYDAIDELVEAIKINPNYYEAYKFIASIYYSLKIYTQAQFFIEKASKMSNEDTEYKILYANILLKNDKIDQAKKIYSEVLVKQRNNIDALVGLASIFEKNGLFIAAANYYLSILDYSQNNYSAFEHLIDIYQRLGMHDKIRHLINKVRVNFLSFPDFHKRVAEFYISINNLGLAEKYALNYLALIESSYKDFGVVDAYRLLALVYLHEFKYEDAIEALQKAILVNKDSDELYYLLGYSYLRFGDIEKAILNLERAKNLKKDLEFYNIALEESFFASNFRNFLKNNSNARISKHYENEGLKAFKSLNLNKALFNAKNAVDIWPDNDSARFLLSKIYKLMNLDIMAYEQLFYLAKQRNSTDSRILDFYDVVSFDVRKSLFYKYGYKSIADFNKLYDDRVVYKMAIFTQSENKFFGANDLILRYAERVLERNLNMEIVNYNFDYNKNRDYLINNFSEGFSYSRNNNLDLFLIFDFKADILKNTATLVVNIFSGKTGIKLVSFSYDVGGVNYLSNALNSLSKDFHDYLPKKGKILQIKNDDALINLGQVNGVVKGDVFLILKEGALNSDTRDSGFIVYKKSDILGEILIEDISDYISRGIVKSSTFLKDYVQEGATVLIKR” as the sequence, how does the protein production read?
Answer: failed

Question: Which protein production does the source give for “MSLGKRIFVFDTTLRDGEQVPGCQLNTEEKIIVAKALDELGVDVIEAGFPVSSPGDFNSVVEITKAVTRPTICALTRAKEADINIAGEALRFAKRSRIHTGIGSSDIHIEHKLRSTRENILEMAVAAVKQAKKVVHEVEFFCEDAGRADQAFLARMVEAVIEAGADVVNIPDTTGYMLPWQYGERIKYLMDNVSNIDKAILSAHCHNDLGLATANSLAALQNGARQVECTINGIGERAGNTALEEVVMAMECHKETLGLETGINHKKLVPISHLVSTLMRMQVQSNKAIVGRNAFAHSSGIHQDGFLKHRETYEIIDEGHHHHHH” here?
Answer: not failed

Question: For “MAGENSDNEPSSPASPSSAGFNTDQLPISTSQNSENFSDEEEAAVDTQVIRDEPDEAEDEEEEEGEDLFNDTFMNDYRKMDENDQYESNGIDDSVDDERDLGQAMLDRRAADADLDARENRLANRKLPHLLHDNDSDDWNYRPSKRSRTTVPPRGNGGDPDGNPPSSPGVSQPDISMTDQTDDYQDEDDNDDEAEFEMYRIQGTLREWVMRDEVRRFIAKKFKDFLLTYVKPKNENGDIEYVPNKCSLEIDYKEFIHVHPNIAIWLADAPQPVLEVMEEVSEKVIFDLHPNYKNIHTKIYVRVTNLPVNDQIRNIRQIHLNTMIRIGGVVTRRSGVFPQLQQVKYDCNKCGAVLGPFFQNSYSEVKVGSCSECQSKGPFTVNVEQTIYRNYQKLTIQESPGTVPAGRLPRHKEVILLNDLIDCARPGEEIEVTGIYTNNFDLSLNTKNGFPVFATVVEANYVTKKQDLFSAYKLTQEDKTQIEELSKDPRIVERIIKSIAPSIYGHEDIKTALALAMFGGQEKNIKGKHRLRGDINVLLLGDPGTAKSQFLKYVEKTGQRAVYTTGKGASAVGLTAAVHKDPVTREWTLEGGALVLADRGICLIDEFDKMNDQDRVSIHEAMEQQSISISKAGIVTSLQARCSVIAAANPVGGRYDSSKSFAQNVELTDPILSRFDILCVVKDVVDPVTDEMLAEFVVNSHFKSQPKGGKMEDSDPEDGIQGSSGSTDPEVLPQNLLKKYLTYSKLYVFPKLGELDAKKLETVYANLRRESMNGQGVSIATRHLESMIRMSEAHARMHLRQYVTEEDVNMAIRVLLDSFISTQKFGVQRTLRESFKRYITYKKDFNSLLLVLLKELVKNALKFEEIISGSNSGLPTIEVKIEELQTKAKEYDIADLRPFFSSTDFSKAHFELDHGRGMIKCPKRLITW”, which protein production is on record?
Answer: failed

Question: For “MVADSFVYSFVSSPDLSVLVLLCVLLLTALRQVGSLRLQIWQVMTLGAFSVLLLGEISPQEALRAINIDVLLFLFGAFCVGEALNRSGYLAWIGGRIVSRAKNTDQLVLLVIFSTGLLSAVLMNDTLAIMGTPLVLRFSRKYGVSPKLMLFALAFGITTGSVMSPIGNPQNLLIAIDGNLDSPFVVFLSSLAVPTMINLVLVYAVLKLFFSREFGKPALIHTEELISDPELAEISKKALFLLLALITCKILLVEFLPAWDFSLSWIALFSASPILLSKRRTEVVKNIDWATLVFFVSMFVLMESVWISGTCQGLLYRMSPQLGSVPTILALSIGLSQLISNVPFVALYLPAMGSGVSQGQLMALAAGSTIAGNLLILGAASNVIILQNAEKEGETFSFMEFAKIGLLISFLNAIIYFIFL”, which protein production is on record?
Answer: failed

Question: Which protein production does the source give for “FYTPSFITSYMCKESITPIVLDKFNAIYQWDCENLKALRGEIDRNFSNEKAKEYLNTLLTLRICDPAVGSGHFLVSALNEMVRVAYELGLIASLYRYDLKLENDEIIIHHTPTGEIFNYIKPDSENDPHHHIQKELFNLKKSIIENCLFGVDINPNSCEITKLRLWIELLKYSYYIFEKGKNTNALETLPNIDINIKCANSLISRFALKDKALLKSEKNKNLEYSIAEYKELVKIYKDPKILETLTHPIKDSNAVRKYAKERLYQELKQNPNKDFKKALNDRIEKIKKAFKLTLNPPPKELKFKKFLKEHLELYGKSILEEANYNGLELEALALEKQMANLFFDYRPYPKLDKSDKVVGLEHFNRYVLTSYKDLQDENERYANALEWRFEFPEVLDDEGDFSGFDCIIGNPPYIRQEHIKDLKPLLEKQYQDFYNSTADIYTYFFALAFHLLKEKGFSAFITSNKYTRAKYGAKLREWLLKKTTIVSYMELNALKVFESAAVDTSIIHFIKQTPSKESEFKYYEPTPNDKDDLKSTPHLLMKQNVLST” here?
Answer: failed

Question: With “MSLKKINTVLAAAFILFILWFGAEFILSPETTAPGFGLPSWPSGDGDGFLIIKGIRDVVLALVLGILLVTGHRRALGWALLVEALAAYGDMTAVLAHHGSVATALGVHCLTATLMVVNGLLIMRETRKVAAAPATPAPQPA” as the sequence, how does the protein production read?
Answer: failed

Question: With “MSDNKPFGGSFGSNGGQYATTVQYGGTAAAPAKVSLGDTPAAAPAGDVIKDTTTAAFAADVIQESRRQPVLVDFWAPWCGPCKQLTPQLEKAVRAAGGKVKLVKMNIDDHPSIAGQLGIQSIPAVIAFKDGQPVDGFMGAIPESQIAEFITKVGGKGNGAPAVAEALAAATEAREAGDMQTAADIFDAILAQAPETIEAIAGLGELLFEAGDTEGAEALLATAPEAKKDAPVLAALRAKMALAAQAAELGNPAEFERRLAENPKDHQARFDLAMIQNARGERTAAADNLLAIIKADRGWNEDGARTQLLQFFEAWGMTDEATLAARRKLSALLFS” as the sequence, how does the protein production read?
Answer: failed

Question: With “QGLLRAIPSITEDMPRLPTIPGNPPSALINHQGCPFRDRCDYRLARCQAETPKFMPLNGRQSIACHVKAQSSISLIHQSA” as the sequence, how does the protein production read?
Answer: failed
